Measurements: paper PMC11555651 (Biochemical Journal, 2024)

T1: Aurora-A kinase domain 122–403 C290A,C393A (UniProt O14965 122-403, C290A | C393A)
T1 construct: Aurora-A Ser/Thr kinase, kinase domain residues 122-403 with C290A and C393A; also called Aurora-A 122–403, C290A, C393A
T1 sequence (looked up): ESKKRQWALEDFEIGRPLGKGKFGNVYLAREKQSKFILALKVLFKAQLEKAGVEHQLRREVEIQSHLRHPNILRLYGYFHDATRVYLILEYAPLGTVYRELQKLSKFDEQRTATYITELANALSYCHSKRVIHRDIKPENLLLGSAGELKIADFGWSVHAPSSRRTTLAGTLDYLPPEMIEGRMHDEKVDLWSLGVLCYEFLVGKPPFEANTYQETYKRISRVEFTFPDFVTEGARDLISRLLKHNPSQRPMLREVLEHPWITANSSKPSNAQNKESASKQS

B1: N-myc_(1–137) TAD (domain or fragment)
chain: GAMMPSCSTSTMPGMICKNPDLEFDSLQPCFYPDEDDFYFGGPDSTPPGEDIWKKFELLPTPPLSPSRGFAEHSSEPPSWVTEMLLENELWGSPAEEDAFGLGGLGGLTPNPVILQDCMWSGFSAREKLERAVSEKLQHG
notes: whole N-myc is said to have 464 residues; 15N-labelled for the NMR titration; also called N-myc TAD; not shown: His-NusA, N-terminal, cleaved
B2: N-myc_(64–137) (domain or fragment)
chain: GAMGSRGFAEHSSEPPSWVTEMLLENELWGSPAEEDAFGLGGLGGLTPNPVILQDCMWSGFSAREKLERAVSEKLQHG
notes: 15N-labelled for the NMR titration; also called C-terminal truncation of the TAD; not shown: His-NusA, N-terminal, cleaved

Columns and labels:
[1] = target: N-myc peptide 47-66 (Homo sapiens) (UniProt P04198); conditions: cited from earlier work
[2] = target: T1, Aurora-A kinase domain 122–403 …; test: NMR titration; 1H-15N HSQC of 15N-labelled N-myc constructs (150-315 uM); unlabelled Aurora-A kinase domain (305-400 uM stock) added up to [N-myc]:[Aurora-A] 1:1.4; 20 mM (K/H)3PO4 pH 6.5, 150 mM NaCl, 2 mM beta-mercaptoethanol, 1% glycerol, 5 mM MgCl2, 5 mM ADP; 25°C stated for N-myc TAD; conditions: both partners purified

Row | Molecule | Kd [1] | binding result [2]
1 | Fbxw7–Skp1 (from UniProt Q969H0) | < 10 nM | –
2 | B1 | – | binds
3 | B2 | – | binds
